Data from patent publication US12649925B2, “Tissue-specific expression and hybrid plant production” (Dow AgroSciences LLC, priority 2013, dated 2026).

How the values were obtained:
[1] = test system: Maize Immature Embryos; assay: Transient AAD1 expression in immature embryos after particle bombardment, ELISA; assay type: cell-based, Zea mays; details: 24 hours after particle bombardment; co-bombardment plasmid pDAB112378 (artificial miRNA)
Description: Zea mays embryos from inbred line B104 that express AAD1 mRNAs having miRNA target sites within the mRNA were produced. Control tissues having no miRNA target sites in the AAD1 mRNA, or having no AAD1 gene expression cassette, were also produced. Other control tissues were produced that had only a YFP gene expression cassette (and no AAD1 construct). Preparations of plant transformation DNA molecules constructed as described in EXAMPLE 2 were delivered into maize B104 immature embryos via particle bombardment transformation.
Plasmid DNAs of pDAB112375, pDAB112376, pDAB112377, pDAB113016, pDAB100286, pDAB112378 and pDAB112330 were isolated and purified from Escherichia coli by standard techniques, and diluted in TE buffer (10 mM Tris HCl plus 1 mM EDTA, pH 8) to 1.0 μg/μL.
Embryo isolation and culture: (Day 1) Surface-sterilized B104 immature ears (10 to 12 days post-pollination) were used for the isolation of embryos. Excised immature embryos from 3 to 4 ears were pooled into 2 mL microfuge tubes containing 2.0 mL liquid medium (LS basal medium (Linsmaier and Skoog, (1965) Physiologia Plantarum 18:100-27) containing CHU N6 vitamins (Chu et al. (1975) Scientia Sinica 18:659-68), 700 mg/L L-Proline, 68.5 gm/L sucrose, 36 gm/L D(+) glucose, and 1.5 mg/L 2,4-D). After embryo isolation, the liquid medium was removed and discarded. Embryos were removed and placed onto plates (40 embryos per plate) containing a semi-solid osmotic medium (MS basal medium (Murashige and Skoog, (1962) Physiologia Plantarum 15:473-497), 2 mg/L Glycine, 500 μg/L Thiamine, 500 μg/L Pyroxidine, 50 μg/L Nicotinic Acid., 120 gm/L sucrose, 100 mg/L myo-inositol, and 2.4 gm/L GELRITE). The embryos were arranged in a […] within the target area for particle bombardment. Three replicate plates were prepared for each construct to be tested. All plates were incubated at 28° C. under continuous low light (50 μEm^−2 sec^−1) for 24 hours prior to particle bombardment.
Coating gold particles with DNA: (Day 2) Tubes of frozen gold particles glycerol stock were thawed on ice for a few minutes, then vortexed for 2 minutes at high speed until a uniform gold suspension was produced. Gold suspension was pipetted into sterile microcentrifuge tubes (50 μL each), with an intermediate vortexing of the particle stock between each tube to maintain a uniform suspension. 2.5 μg each of appropriate plasmid DNAs were included. […]
ELISA quantification of AAD1 and PAT proteins: Enzyme Linked Immunosorbant Assays (ELISAs) were used to measure the production of AAD1 and PAT proteins in maize cells and stably-transformed tissues. […]

[2] = test system: Maize Immature Embryos; assay: Selection of Agrobacterium-transformed immature embryos on herbicide-containing medium; assay type: cell-based, Zea mays; details: Selection Medium I containing 100 nM R-Haloxyfop acid
Description: Agrobacterium-mediated transformation was used to stably integrate a chimeric gene into the plant genome, and thus generate transgenic maize cells, tissues, and plants that produce AAD1 mRNAs having miRNA target sites within the mRNA. Control tissues having no miRNA target sites in the AAD1 mRNA were also produced. Transformed tissues were selected by their ability to grow on Haloxyfop-or Bialaphos-containing medium.
Callus Selection and Regeneration of Transgenic Events: Following the co-cultivation period, embryos were transferred to Resting Medium (4.33 g/L MS salts; 1× ISU Modified MS Vitamins; 30 g/L sucrose; 700 mg/L L-proline; 3.3 mg/L Dicamba in KOH; 100 mg/L myo-inositol; 100 mg/L Casein Enzymatic Hydrolysate; 15 mg/L AgNO3; 0.5 g/L MES (2-(N-morpholino) ethanesulfonic acid monohydrate; PHYTOTECHNOLOGIES LABR.; Lenexa, K S); 250 mg/L Cefotaxime; and 7.0 gm/L agar; at pH 5.8). No more than 36 embryos were moved to each plate. The plates were wrapped with Micropore™ tape and incubated at 27° C. with continuous light at approximately 50 μmol m^−2s^−1 light intensity for 7 to 10 days. […]

B1: pDAB112377: Transient construct: ZmUbilv2/AAD1 v3/miR529 perfect target site with miR156 site mutated/ZmPer5 3′UTR (SEQ ID NO:10) (nucleic acid)
DNA: ATGGCTCATGCTGCCCTCAGCCCTCTCTCCCAACGCTTTGAGAGAATAGCTGTCCAGCCACTCACTGGTGTCCTTGGTGCTGAGATCACTGGAGTGGACTTGAGGGAACCACTTGATGACAGCACCTGGAATGAGATATTGGATGCCTTCCACACTTACCAAGTCATCTACTTTCCTGGCCAAGCAATCACCAATGAGCAGCACATTGCATTCTCAAGAAGGTTTGGACCAGTTGATCCAGTGCCTCTTCTCAAGAGCATTGAAGGCTATCCAGAGGTTCAGATGATCCGCAGAGAAGCCAATGAGTCTGGAAGGGTGATTGGTGATGACTGGCACACAGACTCCACTTTCCTTGATGCACCTCCAGCTGCTGTTGTGATGAGGGCCATAGATGTTCCTGAGCATGGCGGAGACACTGGGTTCCTTTCAATGTACACAGCTTGGGAGACCTTGTCTCCAACCATGCAAGCCACCATCGAAGGGCTCAACGTTGTGCACTCTGCCACACGTGTGTTCGGTTCCCTCTACCAAGCACAGAACCGTCGCTTCAGCAACACCTCAGTCAAGGTGATGGATGTTGATGCTGGTGACAGAGAGACAGTCCATCCCTTGGTTGTGACTCATCCTGGCTCTGGAAGGAAAGGCCTTTATGTGAATCAAGTCTACTGTCAGAGAATTGAGGGCATGACAGATGCAGAATCAAAGCCATTGCTTCAGTTCCTCTATGAGCATGCCACCAGATTTGACTTCACTTGCCGTGTGAGGTGGAAGAAAGACCAAGTCCTTGTCTGGGACAACTTGTGCACCATGCACCGTGCTGTTCCTGACTATGCTGGCAAGTTCAGATACTTGACTCGCACCACAGTTGGTGGAGTTAGGCCTGCCCGCTGAGTAGTTAGCTTAATCACCTAGAGCTCGACTCAGGCTGTACTCTCTCTCTTCACAAAGTACTCAGGTAACCTTTAAACTGAGGGCACTGAAGTCGCTTGATGTGCTGAATTGTTTGTGATGTTGGTGGCGTATTTTGTTTAAATAAGTAAGCATGGCTGTGATTTTATCATATGATCGATCTTTGGGGTTTTATTTAACACATTGTAAAATGTGTATCTATTAATAACTCAATGTATAAGATGTGTTCATTCTTCGGTTGCCATAGATCTGCTTATTTGACCTGTGATGTTTTGACTCCAAAAACCAAAATCACAACTCAATAAACTCATGGAATATGTCCACCTGTTTCTTGAAGAGTTCATCTACCATTCCAGTTGGCATTTATCAGTGTTGCAGCGGCGCTGTGCTTTGTAACATAACAATTGTTACGGCATATATCCAA
modifications: expression cassette; (969)..(1333) ZmPer5 3′UTR
Mean AAD1 Amount [1]: 249 ng/mL
fate of transformed embryos on Haloxyfop-containing medium [2]: grew on Haloxyfop-containing medium and regenerated transgenic plants

B2: pDAB112376: Transient construct: ZmUbilv2/AAD1 v3/WT miR529 target site with miR156 site mutated/ZmPer5 3′UTR (SEQ ID NO:9) (nucleic acid)
DNA: ATGGCTCATGCTGCCCTCAGCCCTCTCTCCCAACGCTTTGAGAGAATAGCTGTCCAGCCACTCACTGGTGTCCTTGGTGCTGAGATCACTGGAGTGGACTTGAGGGAACCACTTGATGACAGCACCTGGAATGAGATATTGGATGCCTTCCACACTTACCAAGTCATCTACTTTCCTGGCCAAGCAATCACCAATGAGCAGCACATTGCATTCTCAAGAAGGTTTGGACCAGTTGATCCAGTGCCTCTTCTCAAGAGCATTGAAGGCTATCCAGAGGTTCAGATGATCCGCAGAGAAGCCAATGAGTCTGGAAGGGTGATTGGTGATGACTGGCACACAGACTCCACTTTCCTTGATGCACCTCCAGCTGCTGTTGTGATGAGGGCCATAGATGTTCCTGAGCATGGCGGAGACACTGGGTTCCTTTCAATGTACACAGCTTGGGAGACCTTGTCTCCAACCATGCAAGCCACCATCGAAGGGCTCAACGTTGTGCACTCTGCCACACGTGTGTTCGGTTCCCTCTACCAAGCACAGAACCGTCGCTTCAGCAACACCTCAGTCAAGGTGATGGATGTTGATGCTGGTGACAGAGAGACAGTCCATCCCTTGGTTGTGACTCATCCTGGCTCTGGAAGGAAAGGCCTTTATGTGAATCAAGTCTACTGTCAGAGAATTGAGGGCATGACAGATGCAGAATCAAAGCCATTGCTTCAGTTCCTCTATGAGCATGCCACCAGATTTGACTTCACTTGCCGTGTGAGGTGGAAGAAAGACCAAGTCCTTGTCTGGGACAACTTGTGCACCATGCACCGTGCTGTTCCTGACTATGCTGGCAAGTTCAGATACTTGACTCGCACCACAGTTGGTGGAGTTAGGCCTGCCCGCTGAGTAGTTAGCTTAATCACCTAGAGCTCGACTCAGGCTGTACTCTCTTACTTCACAAAGTACTCAGGTAACCTTTAAACTGAGGGCACTGAAGTCGCTTGATGTGCTGAATTGTTTGTGATGTTGGTGGCGTATTTTGTTTAAATAAGTAAGCATGGCTGTGATTTTATCATATGATCGATCTTTGGGGTTTTATTTAACACATTGTAAAATGTGTATCTATTAATAACTCAATGTATAAGATGTGTTCATTCTTCGGTTGCCATAGATCTGCTTATTTGACCTGTGATGTTTTGACTCCAAAAACCAAAATCACAACTCAATAAACTCATGGAATATGTCCACCTGTTTCTTGAAGAGTTCATCTACCATTCCAGTTGGCATTTATCAGTGTTGCAGCGGCGCTGTGCTTTGTAACATAACAATTGTTACGGCATATATCCAA
modifications: pDAB112377 expression cassette; (918)..(954) modified tsh4 target site; (969)..(1333) ZmPer5 3′UTR
Mean AAD1 Amount [1]: 317 ng/mL
fate of transformed embryos on Haloxyfop-containing medium [2]: grew on Haloxyfop-containing medium and regenerated transgenic plants
